Test results reported in US10724034B2, “Genetic encoding of chemical post-translational modification for phage-displayed libraries” (THE GOVERNORS OF THE UNIVERSITY OF ALBERTA, priority 2014, dated 2020).
Ends that are not written are not given here. SA = 4-(aminooxymethyl)benzenesulfonamide joined by oxime ligation to the periodate-oxidised N-terminal serine; Gal = galactose; Rha = rhamnose

Columns and labels:
human Galectin-3 protein [1] = target: T1, human Galectin-3 protein (human, UniProt P17931 2-250, limits assumed); experiment: ELISA-like competition with HRP-Lac on Galectin-3 coated plates; reference lactose
T1 construct: also called Gal3
T1 sequence (P17931 2-250 limits assumed): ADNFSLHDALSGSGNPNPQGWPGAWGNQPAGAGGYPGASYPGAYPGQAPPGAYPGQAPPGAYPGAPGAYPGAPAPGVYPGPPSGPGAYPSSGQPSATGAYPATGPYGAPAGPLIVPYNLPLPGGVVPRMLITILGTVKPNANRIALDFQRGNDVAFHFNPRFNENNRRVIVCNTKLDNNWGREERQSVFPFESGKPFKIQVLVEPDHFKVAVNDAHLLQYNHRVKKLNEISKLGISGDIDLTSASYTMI

human Galectin-3 protein [2] = target: T1, human Galectin-3 protein; experiment: ELISA-like competition with HRP-Lac on Galectin-3 coated plates; reference MeGal
[3] = target: T2, Bovine carbonic anhydrase II (bovine, UniProt P00921 2-260); experiment: ITC, replicate [row SA-GGGG, right panel]
T2 construct: Commercial protein; also called BCA
T2 sequence (P00921 2-260 limits assumed): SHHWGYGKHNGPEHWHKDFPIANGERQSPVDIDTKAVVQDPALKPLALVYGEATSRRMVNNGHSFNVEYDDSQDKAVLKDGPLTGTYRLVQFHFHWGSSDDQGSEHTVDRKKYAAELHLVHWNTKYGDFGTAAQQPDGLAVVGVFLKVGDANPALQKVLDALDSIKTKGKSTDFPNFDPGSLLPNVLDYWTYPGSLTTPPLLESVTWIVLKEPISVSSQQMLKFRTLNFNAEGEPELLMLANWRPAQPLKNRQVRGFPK

[4] = target: T2, Bovine carbonic anhydrase II; experiment: ITC, replicate [row SA-GGGG, middle panel]
Protocol: (§1) FIG. 9 provides additional replicates of raw ITC data of sulfonamide-peptide (SA-XXXX) binding to carbonic anhydrase. Raw data obtained for 30 injections of ligands (20-95 μM) into a solution of carbonic anhydrase (2.5-12 μM) at 4-min intervals and 30° C. is shown.

[5] = target: T2, Bovine carbonic anhydrase II; experiment: isothermal titration calorimetry, 30 C, single binding site model; control peptide SA-GGGG (SEQ ID NO:101)
Protocol: as §1

[6] = target: T2, Bovine carbonic anhydrase II; experiment: ITC, replicate [row SA-TRPA, right panel]
Protocol: as §1

[7] = target: T2, Bovine carbonic anhydrase II; experiment: ITC, replicate [row SA-TRPA, left panel]
[8] = target: T2, Bovine carbonic anhydrase II; experiment: ITC, replicate [row SA-TRPA, middle panel]
Protocol: as §1

[9] = target: T2, Bovine carbonic anhydrase II; experiment: isothermal titration calorimetry, 30 C, single binding site model; selected peptide SA-WIVP (SEQ ID NO:26)
Protocol: as §1

[10] = target: T2, Bovine carbonic anhydrase II; experiment: ITC, replicate [row SA-WIVP, middle panel]
Protocol: as §1

[11] = target: T2, Bovine carbonic anhydrase II; experiment: isothermal titration calorimetry; reference SA-GGGG
Protocol: as §1

[12] = target: T2, Bovine carbonic anhydrase II; experiment: ITC, replicate [row SA-WIVP, right panel]
Protocol: as §1

human Galectin-3 protein [13] = target: T1, human Galectin-3 protein; experiment: competition ELISA: HRP-Lactose binding to plate-coated Galectin-3 [upper left panel]
How it was run: (§2)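 Half-maximal inhibitory concentrations came from competition curves in an ELISA-like assay in which test molecules competed against a lactose-conjugated horseradish peroxidase probe for human Galectin-3. The carbohydrate recognition domain of the protein was coated on polystyrene 96-well plates at 10 μg/ml, and less colour development meant competition.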

human Galectin-3 protein [14] = target: T1, human Galectin-3 protein; experiment: competition ELISA: HRP-Lactose binding to plate-coated Galectin-3 [upper right panel]
How it was run: as §2

human Galectin-3 protein [15] = target: T1, human Galectin-3 protein; experiment: ELISA-like competition: inhibition of soluble HRP-Lactose binding to immobilised Galectin-3
How it was run: as §2

human Galectin-3 protein [16] = target: T1, human Galectin-3 protein; experiment: ELISA-like competition with HRP-Lac on immobilised Galectin-3; reference lactose
How it was run: (§3)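 Each value expresses inhibition as a fold difference relative to a known Galectin-3 reference ligand run alongside in the same assay. The ELISA-like assay used polystyrene 96-well plates coated at 10 μg/ml with the carbohydrate recognition domain of human Galectin-3. Test molecules competed with a bound lactose-conjugated horseradish peroxidase probe, and reduced colour development indicated competition.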

human Galectin-3 protein [17] = target: T1, human Galectin-3 protein; experiment: competition ELISA: HRP-Lactose binding to plate-coated Galectin-3 [lower left panel]
How it was run: as §2

human Galectin-3 protein [18] = target: T1, human Galectin-3 protein; experiment: ELISA-like competition with HRP-Lac on immobilised Galectin-3; reference Lacto-N-Tetraose
How it was run: as §3

human Galectin-3 protein [19] = target: T1, human Galectin-3 protein; experiment: ELISA-like competition with HRP-Lac on immobilised Galectin-3; reference MeGal
How it was run: as §3

human Galectin-3 protein [20] = target: T1, human Galectin-3 protein; experiment: competition ELISA: HRP-Lactose binding to plate-coated Galectin-3 [lower right panel]
How it was run: as §2

Work on Rha-IWVR (rhamnose-peptide conjugate) yielded a fold better than Lactose control (human Galectin-3 protein [1]) of 10 fold and a fold more potent inhibitor than MeGal (human Galectin-3 protein [2]) of 400 fold.

B1: SA-GGGG (control sulfonamide-modified peptide) (peptide)
peptide: {SA}-GGGG-NH2
modifications: also: N-terminal SA cap oxime-linked, made from oxidised N-terminal Ser
notes: Control peptide in ITC; also called control peptide SA-GGGG
B1 gave a Kd [3] of 140 nM, a Kd [4] of 130 nM and a Kd [5] of 150 nM.

With {SA}-TRPA-NH2 (also: N-terminal SA cap oxime-linked, made from oxidised N-terminal Ser) [SA-TRPA] the Kd [6] was 38 nM, the Kd [7] was 33 nM and the Kd [8] was 31 nM.

B2: SA-WIVP (sulfonamide-modified peptide) (peptide)
peptide: {SA}-WIVP-NH2
modifications: also: N-terminal SA cap oxime-linked, made from oxidised N-terminal Ser
notes: Synthetic conjugate made from the peptide S-WIVP; The N-terminal Ser is turned into the oxime-linked sulfonamide; also called sulfonamide-peptide; SA-XXXX
With B2 the Kd [9] was 5 nM, the Kd [10] was 9 nM and the “fold stronger affinity than control peptide SA-GGGG” value [11] was 30 fold. It also gave a Kd [12] of 6 nM.

With Rha-PQLP (not fully specified; printed as Rha-PQLP) [Rha-PQLP] the “IC50 (read off the curve)” value (human Galectin-3 protein [13]) was about 1 mM.

B3: Gal-PAPT (galactose-modified glycopeptide) (peptide)
peptide: Gal-PAPT
modifications: also: exact galactose derivative not given here
notes: Synthetic glycan-peptide conjugate; also called glycopeptide Gal-PAPT
In the case of B3, the “IC50 (read off the curve)” value (human Galectin-3 protein [14]) is reported as about 0.02 mM, the EC50 (human Galectin-3 protein [15]) is reported as 14 µM and the “fold better inhibition than Lactose” value (human Galectin-3 protein [16]) is reported as 30 fold. For the same molecule, the “IC50 (read off the curve)” value (human Galectin-3 protein [17]) was about 0.02 mM, the “fold better inhibition than LNT” value (human Galectin-3 protein [18]) was 5 fold and the “fold better inhibition than MeGal” value (human Galectin-3 protein [19]) was over 1500 fold. For the same molecule, the “IC50 (read off the curve)” value (human Galectin-3 protein [20]) was about 0.02 mM.
